Laboratory results: patent US9364412B2, “Electrostatically controlled hydrogels” (University of Utah Research Foundation, priority 2005, dated 2016)
Values belong to the molecule of their own block, whether it stands above or below them. Where no end group is shown, it is not given here.

Assays:
[1] = Solubility of peptide in buffer (observation); type: physicochemical
[2] = Salt-induced gelation (NaCl added to peptide solution); type: physicochemical; conditions: for final NaCl concentration for salt-induced gelation: peptides dialyzed in 30 mM buffer, pH 6.0
Protocol: For pH-induced gelation, dialyzed peptide solutions in vials were exposed to vapors of acetic acid (acid-induced gelation) or ammonium hydroxide (base-induced gelation). […] For salt-induced gelation, saturated sodium chloride solution was added into the dialyzed stock peptide solution so that the final peptide concentration in the hydrogel was 1 wt %. For mixing-induced gelation, dialyzed peptide solutions were mixed at 1:1 weight ratio such that the final total peptide concentration was 1 wt %.
The salt concentration necessary to induce gelation was quite high as indicated by FIG. 2. All peptides were dialyzed in 30 mM buffer and needed a much higher concentration to trigger hydrogelation.

[3] = biological target: T1, SEQ ID NO 1, Acetyl-EWEVEVEVEV-amide (negatively charged module); test: mixing-induced co-assembly into hydrogel, dynamic rheometry
T1 construct: Synthetic designed decapeptide; also called Acetyl-EW(EV)4-amide; negatively-charged peptide module
T1 peptide: Ac-EWEVEVEVEV-NH2

SEQ ID NO 5 = biological target: T2, SEQ ID NO 5; test: as above
T2 construct: All peptides were made on Rink Amide resin; also called member of the serine pair
T2 peptide: EWESESESES-NH2

[4] = biological target: T3, SEQ ID NO 9, Acetyl-EWEAEAEAEA-amide (negatively charged module); test: small-angle X-ray scattering of the mixed peptide pair
T3 construct: also called EAW10
T3 peptide: Ac-EWEAEAEAEA-NH2
Protocol: (§1) A small-angle x-ray scattering instrument was used for measurements at 25° C. This instrument has a slit geometry and all analyses were corrected for this. The angular dependence of the scattering of x-rays from particles in a solvent has the form:
(§2) Transmission electron microscopic (TEM) images of all hydrogels show the formation of fibrous network (FIG. 20). However, the drying step involved in the sample preparation for TEM might cause peptide fibers to aggregate further, giving rise to very heterogeneous samples that were difficult to characterize accurately in terms of fiber thickness, estimated very approximately as ~30 nm (diameter). Therefore, small angle X-ray scattering (SAXS) was used to probe the hydrated fibrous network with minimal perturbations to the samples. The measured scattering intensity (I(Q)) increased over time for each of the biomaterials, indicative of the formation of aggregates and consistent with a growing fibril networks (FIG. 18). […] The trend of the gelation kinetics is evident in FIG. 18, and also in the summary of the structural parameters that can be determined using P(r) analysis (Table 4). The kinetics of the formation of these structures is distinctive among the peptide pairs, with the SEQ ID NO 10:SEQ ID NO 11 pair reaching equilibrium most rapidly (between 15 min and 1 h) and the SEQ ID NO 9:SEQ ID NO 8 pair taking more than 11 hours before its small-angle scattering pattern becomes evident. The overall gelation kinetics monitored by SAXS follows a clear order of SEQ ID NO 10:SEQ ID NO 11>SEQ ID NO 9:SEQ ID NO 11>SEQ ID NO 10:SEQ ID NO 8>SEQ ID NO 9:SEQ ID NO 8. The order of gelation kinetics can be directly correlated to the total electrostatic and hydrophobic interactions among the oligopeptide pairs, which is highest for the SEQ ID NO 10:SEQ ID NO 11 pair and least for the SEQ ID NO 9:SEQ ID NO 8 pair. Among the two unequal chain length pairs, kinetics of SEQ ID NO 9:SEQ ID NO 11 (13 charged and 12 apolar amino acids) was faster than SEQ ID NO 10:SEQ ID NO 8 (12 charged and 13 apolar amino acids).

[5] = biological target: T4, SEQ ID NO 10, Acetyl-WEAEAEAEAEAEAEA-amide (negatively charged module); test: as above
T4 construct: Synthetic designed 15-mer
T4 peptide: Ac-WEAEAEAEAEAEAEA-NH2
Protocol: as §1, §2

solubility at pH 7 [1]: did not appear to be high enough
Molecule: Ac-WKVKVKVKVK-NH2 [SEQ ID NO 3, Acetyl-WKVKVKVKVK-amide]

Molecule: Acetyl-EWEVEVEVEV-amide (Ac-EWEVEVEVEV-NH2) [SEQ ID NO 1, negatively charged peptide module]
state of sample at 1.5 M NaCl ([2]; 1.5 M salt concentration): still a viscous solution
final NaCl concentration for salt-induced gelation [2]: 3 M

Molecule: Acetyl-KWKVKVKVKVKVKVK-amide (Ac-KWKVKVKVKVKVKVK-NH2) [SEQ ID NO 2, positively charged peptide module]
final NaCl concentration for salt-induced gelation [2]: 1.5 M

binding result [3]: binds
B1: SEQ ID NO 3, Acetyl-WKVKVKVKVK-amide (positively charged module) (peptide)
peptide: Ac-WKVKVKVKVK-NH2
notes: Synthetic designed decapeptide; also called Acetyl-WK(VK)4-amide; positively-charged peptide module

binding result (SEQ ID NO 5): binds
B2: SEQ ID NO 4 (peptide)
peptide: WKSKSKSKSK-NH2
notes: All peptides were made on Rink Amide resin; also called member of the serine pair

binding result [4]: binds
binding result [5]: binds
Molecule: Ac-KWKAKAKAKAKAKAK-NH2 (Synthetic designed 15-mer) [SEQ ID NO 11, Acetyl-KWKAKAKAKAKAKAK-amide (positively charged module)]

binding result [3]: binds
Molecule: Ac-KWKVKVKVKVKVKVK-NH2 (Synthetic designed 15-mer) [SEQ ID NO 2, Acetyl-KWKVKVKVKVKVKVK-amide (positively charged module)]

binding result [4]: binds
binding result [5]: binds
Molecule: Ac-WKAKAKAKAK-NH2 (also called KAW10) [SEQ ID NO 8, Acetyl-WKAKAKAKAK-amide (positively charged module)]
